{
  "source": "paper PMC12635249",
  "molecular_target": "PorKN heterodimer unit (P. gingivalis)",
  "experiment": "cryo-EM structure",
  "note": "“And” between values parts separate entries of the source, which are not always exact repeats. Equal values may be shown once.",
  "data": [
    {"substance": "PorKN heterodimer unit (complex)", "values": [
      {"measurement": "stoichiometry N", "value": "31 to 35 (2×) and 33"}
    ]}
  ]
}
